Experimental data from the RNAGym collection of RNA variant scans (doi:10.1073/pnas.2313332121).
Fewer inactive variants are shown than the library holds.

B1: TPR 5TU (parent)
chain: GGAUCUUCUCGAUCUAACAAAAAAGACAAAUCUGCCACAAAGCUUGAGAGCAUCUUCGGAUGCAGAGGCGGCAGCCUUCGGUGGCGCGAUAGCGCCAACGUUCUCAACUAUGACACGCAAAACGCGUGCUCCGUUGAAUGGAGUUUAUCAUG

Variants of: B1
Test: polymerase ribozyme fitness, log enrichment relative to wild type (log ratio); higher = more active; in vitro selection for triplet polymerase activity
Summary of the method: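 Fitness compares each genotype's enrichment to that of the wild type on a logarithmic scale, averaging replicates with inverse-variance weights. The logarithm is base 2. Enrichment came from Illumina sequencing of input and output libraries after one triplicate round of in vitro selection, which included frozen incubation at −7 °C, of PCR-built, transcribed mutant libraries of each subunit of a heterodimeric triplet polymerase ribozyme. Only genotypes with ≥10 input reads and ≥1 read per output were kept.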
In the case of GGAUCUUCUCGAUCUAACAAAAAAGACAUAUCUGCCACAAAGCUUGAGAGCAUCAUCGGGUGCAGAGGCGGCAGCCUUCGGUGGCACGAUAGCGCCAACGUUCUCAACUAUGACACGCAAAACGCGUGCCCCGUUGAAUGGAGUUUAUCAUG, the “polymerase ribozyme fitness (log ratio)” value is reported as no more than -4.2. In the case of GGAUCUUCUCGAACUAACAAAAAAGACAAAUCUGCCACAAAGCUUGAGAGCAUCUUCGGAUGCAGAGGAGGCAGCCUUCGGUGGCGCGAUAGCGCCAACGUUCUCAACUAUGACACGCACAACGCGUGCUCCGUUGAAUGGAGUUUAUCAUG, the “polymerase ribozyme fitness (log ratio)” value is reported as -2.74. For GGAUCUUCUCGAUCUAACAAAAAAGACAAAUCUGCCACAAAGCUUGAGAGCAUCUUCGGAUGCAGAGGCGGCAGCCUUCGGUGGCGCGAUAGUGCCAACGUUCUCAACUAUGACACGCAAAACGCGUGCUCCGUUGAAUGGAGUUUAACAUG, the “polymerase ribozyme fitness (log ratio)” value was -3.85. For GGAUCUUCUCGAUCUAACAAAAAAGACAAAUCUGCCACAAAGCUUGAGAGCAUCUUCGGAUGCAGAGGCGGCAGCCUUCGGUGACGCGAUAGCGCCAACGUUCUCUACUAUGACACGCAAAACGCGUGCUCCGUUGAAUGUAGUUUAUCAUG, the “polymerase ribozyme fitness (log ratio)” value was -0.79. In the case of GGAUCUUCUCGAUCUAACAAAAAAGACAAAUCUGCCACAAAGCUUGAGAGCAGCUUCGGAUGCAGAGGCGGCAGCCUUCGGUGGCGCGAUAGCGCCAACGUUCUCAACUAUGACCCGCAAAACGCGUGCUCCGUUGAAUGGAAUUUAUCAUG, the “polymerase ribozyme fitness (log ratio)” value is reported as -4.06. In the case of GGAUCUUCACGAUCUAACAAAAAAGACAAAUCUACCACAAAGCUUGAGAGCAUCUUAGGAUGCAGAGGCGGCAGCCUUCGGUGGAGCGAUUGCGCCAACGUUCUCAACUAUGACACGCAAAACGCGUGCUCCGUUGAAUGGAGUUUAUCAUG, the “polymerase ribozyme fitness (log ratio)” value is reported as no more than -4.2. For GGAUCUUCUCGAUCUAACAAAAAAGACAAAUCUGCCACAAAGCUUGAGAGCAUCUUCGGAUGCAGAGGAGGCGGCCUUCGGUGGCGCGAUACCGCCAACGUUCUCAACUAUGACACGCAAAACGCGUGCUCCGUUGAAUGGAGUUUAUCAUG, the “polymerase ribozyme fitness (log ratio)” value was -1.54. In the case of GGAUCUUCUCGAUCUAACAUAAAAGACAAACCUGCCACAACGCUUGAGAGAAUCUUCGGAUGCAGAGGCGGCAGCCUUCGGUGGCGCGAUAGCGCCAACGUUCUCAACUAUGACACGCAAAACGCGUGCUCCGUUGAAUGGAGUUUAUCAUG, the “polymerase ribozyme fitness (log ratio)” value is reported as -2.21. With GGCACUUCUCGAUCUAACAAAAAAGACAAAUCUGCCACAAAGCUUGAGAGCAUCUUCGGAUGCAGAGGCGGCAGCCUUCGGUGGCGCGAUAGCGCCAACGUUCUCAACUAUGACACGCAAAACGCGUGCUCCGUUGAAUGGAGUUUAUCAUG the “polymerase ribozyme fitness (log ratio)” value was 0.257. With GGAACUUCUCGAUCUAACAAAAAAGACAAAUCUGCCACCAAGCUUGAGAGCAACUUCGGAUGCAGAGGCGGCAGCCUUCGGUGGCGCGAUAGCGCUAACGUUCUCAAUUAUGACACGCAUAACGUGUGCUCCGUUGAAUGGAGUUUAUCAUG the “polymerase ribozyme fitness (log ratio)” value was no more than -4.2. In the case of GGAUCUUCUCGAUCUAACAAAAAAGACAAAUCUGCCACAAAGCUUGAGAGCAUCUUCGGAUGCAGAGCCGGCAGCCUUCGGUGGCGCUAUAGCGCCAACGUUCGCAACUAUGAUACGCAAAACGCGCGCUCCGUUGAAUGGAGUUUAUCAUG, the “polymerase ribozyme fitness (log ratio)” value is reported as no more than -4.2. For GGAUCUUCUCGAUCUAACAAAAAAGACAAAUCUGCCACACAGCUUGAGAGCAUCUUCGGAUGCAGAGGCGGCAGCCUUCGGUGGCGCGAUAGCGCCAACGUUCUCAACUAUGACACGCCAAACGCGUGCUCCGUUGAAUGGAGUUUAUCAUG, the “polymerase ribozyme fitness (log ratio)” value was 0.851. With GGAUCUUCUCGAUCUAACAAAAAUGACAAAUCUGCCACAAAGCUUGAGAGCAUCUUCGGAUGCAGAGACGGCAGCCUUCGGUGGCGCGAUAGCGCCAACGUUCUCAACUAUGACACGCAAAACGCGUGCUCCGUUGAAUGGAGUUUAUCAUG the “polymerase ribozyme fitness (log ratio)” value was -3.78. For GGACGUUCUCGAUCUAACAAAAAAGACAAAUAUGCCACACAGCUUGAGAGCAUCUUCGGAUGCAGAGGCGGCAGCCUUCGGCGGCGCGAUAGCGCCAGCGUUUUCAACUAUGCCACGCAAAACGCGUGCUCCGUUGAAUGGAGUUUAUCCUG, the “polymerase ribozyme fitness (log ratio)” value was no more than -4.2. For GGAUCUUCUCGAUCUAACAAAAAAGACAAAUCUGCCACAAAGCUUGAGAGCAUCUUCGGAAGCAAAGGCGGCAGCCUUCGUUGGUGCGAUAGCGCCAACGUGCUCAACUAUGACACGCAAAACGCGUGCUCCGUUGAAUGGAGUUUAUCAUG, the “polymerase ribozyme fitness (log ratio)” value was no more than -4.2. In the case of GGAUCUUCUCGAUCUAACAAAAAAGACAAAUCUGCCACAAUGCUUGAGAGCAUCUUCGGAUGCAGAGGCGGCAGCCUUCGGUGGCGCGAUAGCGCCAACGUUCUCAACUAUGACACGCAGAACGCGUGCUCCGUUGAAUGGAAUUUAUCAUG, the “polymerase ribozyme fitness (log ratio)” value is reported as -2.06. In the case of GGAUCUUCUCGAUCUAACAAAAAAGACAGAUCUGCCACAAAGCUUGUGUGCAUCUUCGGAUGCAGAGGCGGCAGCCUUCGGUGGCGCGAUAGCACCAACGUUCUCAACUAUGACACGCAAAACGCGUGCUUCGUUGAAUGGAGUUUAUCAUG, the “polymerase ribozyme fitness (log ratio)” value is reported as no more than -4.2. For GGAUCUUCUCGAUCUAACAAAAAAGACAAAUCUGCCACAAAGCUUGAGAGCAUCUACGGAUGCAGAGGCGGCAGCCUUCGGUGGCGCGAUAUCGCCAACGUACUCAACUAUGACACGCAAAACGCGUGCUCCGCUGAAUGGAGUUUAUCAUG, the “polymerase ribozyme fitness (log ratio)” value was -1.59. For GGAUCUUCUCGAUCUAACAAAAAAGACAAACCUGCCACAAAGCUUGAGAGCAGCUUCGGAUGCAGACGCGGCAGCGUUCGGUAGCGCGAUAGCGCCAACGUUCUCAACUAUGACACGCAAAACGCGUGCUCCGUUGAAUGGAGUUUAUCAUG, the “polymerase ribozyme fitness (log ratio)” value was -3.62. With GGACCUUCUCGAUUAAACAAAAAAGACAAAUCUGCCACAACGCUUGAGAGCAUCUUCGGAUGCAGAGGCGGCAGCCUUCGGUGGCGCGAUAGAGUCAACGUUCUCAACUAUGACACGCAAAACGCGUGCUCCGUUGAAUGGAGUUUAUCAUG the “polymerase ribozyme fitness (log ratio)” value was no more than -4.2. In the case of GGAUCUUCUCGAUCUAUCAAAAAAGACAAAUCUGCCACAAAGCUUGAGAGCAUCUUCGGAUGCAGAGGCGGCAGCCUUCGGUGGCGCGAUAGCCCCAACGUUCUCAACUAUGACACGCAAAACGCGUGCUCUGUUGAAUGGAGUUUAUCAUG, the “polymerase ribozyme fitness (log ratio)” value is reported as -1.54. With GGAUCUUCUCGAUCUCACAAAAAAGACAAAUCUGCCACAAAGCUGGAGAGCAUCUUCGGAUGCAGAGGCGGCAGCCUUCGGUGGCGCGAUAGCGCCAACGUUCUCAACUAUGAUACGCAAAACGCGUGCUCCGUUGAAUGGAGUUUAUCAUG the “polymerase ribozyme fitness (log ratio)” value was -3.74. With GGAUCUUCUCGAUCUAACAAAAAAGACAAAUCUGCCACAAAGCUUGAGAGCAUGUUCGGAUGCAGAGGCGGCAGCCUUCGGUGGCGCGAUAGCGCGAACGUUCUCAACUAUGACACGCAAAACGCAUGCUCCGUUGAAUGGAGUUUAUCAUG the “polymerase ribozyme fitness (log ratio)” value was -2.33. For GGAUCUUCUCGAUCUAACAAAAAAGACAAAUCUGUCACAAAGCUUGAGAGCAUCUUCGGAUGCAGAGGCGGCAGCCUUCGGUGGCGCGAUAGCACCAACGUUCUCAAAUAUGACACGCAAAACGCGUGCUCCGUUGAAUGGAGUUUAUCUUG, the “polymerase ribozyme fitness (log ratio)” value was no more than -4.2. For GGAUCUUCUCGUUCUAACAAAAAAGACAAAUCUGACACAAAGCUUGAGAGCAUCUUCGGAUGCAGAGGCGGCAGCCUUUGGUGGCGCGAUAGCGCAAACGUUCUCAACUGUGACACGUAAAACGAGUGCUCCGUUGAAUGGAGUUUAUCAUG, the “polymerase ribozyme fitness (log ratio)” value was no more than -4.2. In the case of GGAUCUUCUCGAUCUAACAAAAAAGACAAAUCUGCCACAUAGCUUGAGAGCAUCAUCGGAUGCAGAGGCGGCAGCCUUCGGUGGCGCGAUAGCGCCAACGCUCUCAACUAUGACACGCACAACGCGUGCUCCGUUGAAUGGAGUUUAUCAUG, the “polymerase ribozyme fitness (log ratio)” value is reported as -0.406. In the case of GGAUCGUCUCGAUCUAACAAAAAAGACAAAUCUGCCACAAAGCUUGAGAGCAUCUUCGGAUGCAGAGGCGGCAGCCUUCGGUGGCGUGAUAGCGCCAACGUUCUCAACUAUGACACGCAAAACGCGUGCUUCGUUGAAUGGAGUUUAUCAUG, the “polymerase ribozyme fitness (log ratio)” value is reported as 0.928. In the case of GGAACUUCUCGCUCUAACAAAAAAGACAAAUCUGCCACAAAGCUUGAGAGCAUCAUCGGAUGCAGAGGCGGCAGCCUUCGGUGUCGCGAUAGCGCCAACGUUCUCAACUAUGACACGCAAAACGCGUGCUCCGUUGAAUGGAGUUUAUCAUG, the “polymerase ribozyme fitness (log ratio)” value is reported as -2.4. For GGAUCUUCUCGAUCUAACAAAAAAGACAAAUCUGCCACAAAGCUUGAGAGCAUCUUCGGAUGCGGAGGCGGCAGCCUUCGGUUGCGCGAUAGCGCCAACGUUCUCAACUAUGACACGAAAAACGCGUGCUCCGUUGAGUGGAGUUUAUCAUG, the “polymerase ribozyme fitness (log ratio)” value was no more than -4.2. With GGAUCUUCUCGAUCUAACAAAAAAGACAAAUCUGCCACAAAGCUUGAGAGCAUCUUCGGAUGCAGAGGCGGCAGCCUUCGGUGGCGCGAUACCGCCAACGUUCUCAACUAUGACACGCAAAACUCGUGUUCCGUUGAGGGGAGUUUAUCAUG the “polymerase ribozyme fitness (log ratio)” value was no more than -4.2. In the case of GGAUCUUCUCGAUCUAACAAUAAAGACAAAUCUGCGACAAAGCCUGAGAGCAUGUUCGGAUGCAGAGGCGGCAUCCUUCGGUGGCGCGGUAGCGCCAACGUUCUCAACUAUGACACGCACAACGCGUGCUCCGGUGAAUGGAGUUUAUCAUG, the “polymerase ribozyme fitness (log ratio)” value is reported as no more than -4.2. With GGAGCUUCUCGAUCUAACAAAACAGACAAAUCUGCCACAAAGCUUGAGAGCAUCUUCGGAUGCAGAGGCGGCAGCCUUAGGUGGCGCGAUACCGCCAACAUUCUCAACUAUGACACGCAAAACGCGUGCUCCGUUGAAUGGAGUUUAUCAUG the “polymerase ribozyme fitness (log ratio)” value was no more than -4.2. With GGAUCUUCUCGAUCUAACAAAAAAGAUAAAUCAGCCACAAAGCUUGAGAGCAUCUUCGGAUGCAGAGGCGGCAGCCUUCGGUGGCGCGAUACCGCCAACGUUCUCAACUAUGACACGCAAAACGCGUGCUCCGUUGAAUGGAGUUUAUCAUG the “polymerase ribozyme fitness (log ratio)” value was -3.92. With GGAUCUUCUCGAUCUAACAAAAAAGACAAAUCUGCCCCAAAGCUUGAGAGCAUCUUCGGAUGCAGAGGCGGCAGCCUUCGGUGACGCGAUAGCGCCAACGGUCUCAACUAUGACACGCAAAACGCCUGCUCCGUCGAAUGGAGUUUAUCAUG the “polymerase ribozyme fitness (log ratio)” value was -3.6. With GGAUCUUCUCGAUCUAACAAAAAAGACAAAUCUGUCACAAAGGUUGAGAGCAUCUUCGGAUGCAGAGGCGGCAGCCUUCGGUGGCGCGAUAGAGCCAACGUUGUCAACUAUGACACGCAAAACGCGUGCUCCGUUGAAUGGAGUUUAUCAUG the “polymerase ribozyme fitness (log ratio)” value was no more than -4.2. With GGAUCUUCUCGAUCUAACAAAAAAGACAAAUCGGCCACAAAGCUUGAGAGCAUCUUCGGGUGCAGAGGCGGCAGCCUUCGGUGGCGCGAUAGCGCCAACGUUCUCAACUAUGACACGCAAAACGCGUGCUCCGUUGAAUGGAGUUUAUCAUG the “polymerase ribozyme fitness (log ratio)” value was -2.79. For GGAUCUUCUCGAUCUAACAAAAAUGACAAAUCUGCCACAAAGCUUGAGAGCUUCUUCGGAUGCAGAGGCGGCAGCCUUCGGUGGCGCGAUAGCGCCAACGUUCUCAACUAUGACACGGAAAACGCGUGCUCCGUUGAAUGGUGUUUAUCAUG, the “polymerase ribozyme fitness (log ratio)” value was -3.54. For GGAUCAGCUCGAUCUAACAAAAAAGACAAAUCUGCUACAAAGCUUGAGAGCAUCUUCGGAUGCAGAGGCGGCAGCCUUCGGUGGAGCGAUAGCGCCAACGUUCUCAACUAUGACACGCAAAACGCGUGCUCCGUUGAAUGGAGAUUAUCAUG, the “polymerase ribozyme fitness (log ratio)” value was no more than -4.2.
